Reference: patent US20250025506A1 (INNOVATIVE CELLULAR THERAPEUTICS, published 2025)
Blank lines part the entries; values can stand above or below the binder they belong to.

Biological target: T1, UPK2 antigen on 293T cells (6600, Lenti-UPK2 antigen plasmid) (Homo sapiens (Human), UniProt O00526 85-184)
T1 construct: 293T cells transiently transfected with plasmid 6600 or infected with virus packaged from it; also called UPK2 target cells; 293T cells with UPK2 target
T1 sequence: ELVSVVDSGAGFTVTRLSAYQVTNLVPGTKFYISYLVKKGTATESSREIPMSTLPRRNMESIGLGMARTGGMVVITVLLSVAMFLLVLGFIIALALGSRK
Experiment: flow cytometry, histogram of 293T-6600 cells (293T transiently transfected with plasmid 6600, UPK2-noflag) stained with the antibody; goat-anti-human FITC secondary per paragraph 179

percent of cells in the positive gate: 0.19%
B1: S7F9 recombinant anti-UPK2 monoclonal antibody (murine-human chimeric) (antibody, V domains shown)
VH: QVQLKQSGPGLVRPGASVTMSCKASGYTFTSNWMHWVKQRPGQGLDWIGMIDPSNSDTRLNQKFKDKATLNVDKSSNTAYMQLSSLTSDDSAVYYCMRGGGDYWGQGTTLTVSS
VL: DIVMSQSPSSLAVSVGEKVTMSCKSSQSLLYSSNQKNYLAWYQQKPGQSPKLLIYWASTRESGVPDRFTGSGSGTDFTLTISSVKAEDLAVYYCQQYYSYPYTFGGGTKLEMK

percent of cells in the positive gate: 0.06%
B2: S2B7 recombinant anti-UPK2 monoclonal antibody (murine-human chimeric) (antibody, V domains shown)
VH: EVQLQQSGAELMKPGTSVKMSCKAAGYTFTKYWIGWVKQRPGHGLEWIGDIYPGGGYTLFNEKFKGKATLTADTSSSTAYMQLSSLTSEDSAIYYCARGNYWGQGTTLTVSS
VL: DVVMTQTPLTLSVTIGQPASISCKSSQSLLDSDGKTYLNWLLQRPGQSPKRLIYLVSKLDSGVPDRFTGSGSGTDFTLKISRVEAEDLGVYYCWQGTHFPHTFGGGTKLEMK

percent of cells in the positive gate: 0.48%
B3: S7F11 recombinant anti-UPK2 monoclonal antibody (murine-human chimeric) (antibody, V domains shown)
VH: EVQLKESGAELVRSGASVKLSCTASAFNIKDYYMNWMKQRPEQGLEWIGWIDPENGDTKYAPKFQGKATITADTSSSTAYLQLTSLTSEDSAVFYCNVNYKYDWFAYWGQGTLVTVSA
VL: DVVMTQSQKFMSTSVGDRVSVTCKASQNVGTNVAWYQQKPGQSPRALIYSASYRYSGVPDRFTGSGSGTDFTLTISNVQSEDLAEYFCQQYNTYPWTFGGGTKLEIK

percent of cells in the positive gate: 0.07%
B4: S3D10 recombinant anti-UPK2 monoclonal antibody (murine-human chimeric) (antibody, V domains shown)
VH: QVQLQQSGAELVRSGASVKLSCTDSGFNIKDYYMNWVKQRPEQGLEWIGWIDPENGVTQYDPKFQGKATVTADTFSNTAYLQLSSLTSEDTAVYYCNANYKYDWFGYWGQGTLVTVSA
VL: NIVMTQSPSSLSASLGERVSLTCRASQEISGYLSWLQQKPDGTIKRLIYAASTLDSGVPERFSGSRSGSDYSLTISSLESEDFADYYCLQYASYPWTFGGGTKLEMK

percent of cells in the positive gate: 27%
B5: S3A4 recombinant anti-UPK2 monoclonal antibody (murine-human chimeric) (antibody, V domains shown)
VH: EVKLKQSGAELVKPGASVKLSCKASGYTLTSYYIYWVKQRPGQGLEWIGGISPSNGNTYFTEKFKNMATLTVDKSSNTAYMQLSSLTSEDSAVYYCARNYDYDVGFAYWGQGTLVTVSS
VL: DVVMTQTPLSLPVSLGDQASISCRSSQSIVHSNGNTYLEWYLQKPGQSPKLLIYKVSNRFSGVPDRFSGSGSGTDFTLKISRVEAEDLGVYYCFQGSHVPFTFGSGTKLEIK
